Measurements published in paper PMC3401373, “ATM-Dependent Downregulation of USP7/HAUSP by PPM1G Activates p53 Response to DNA Damage” (Molecular Cell, 2012).

Target: T1, His-tagged USP7S (Ser18-containing isoform of USP7/HAUSP), purified recombinant (human, UniProt Q93009 1-1102, phosphoserine at 18 as purified from insect cells; not stated whether the phosphorylated or the dephosphorylated form stood in the pull-down of Figure 4D)
T1 construct: USP7 (HAUSP), human, the isoform that contains serine 18 (USP7S); also called pUSP7S; source: recombinant, purified from insect cells
T1 sequence (Q93009 whole entry, canonical isoform): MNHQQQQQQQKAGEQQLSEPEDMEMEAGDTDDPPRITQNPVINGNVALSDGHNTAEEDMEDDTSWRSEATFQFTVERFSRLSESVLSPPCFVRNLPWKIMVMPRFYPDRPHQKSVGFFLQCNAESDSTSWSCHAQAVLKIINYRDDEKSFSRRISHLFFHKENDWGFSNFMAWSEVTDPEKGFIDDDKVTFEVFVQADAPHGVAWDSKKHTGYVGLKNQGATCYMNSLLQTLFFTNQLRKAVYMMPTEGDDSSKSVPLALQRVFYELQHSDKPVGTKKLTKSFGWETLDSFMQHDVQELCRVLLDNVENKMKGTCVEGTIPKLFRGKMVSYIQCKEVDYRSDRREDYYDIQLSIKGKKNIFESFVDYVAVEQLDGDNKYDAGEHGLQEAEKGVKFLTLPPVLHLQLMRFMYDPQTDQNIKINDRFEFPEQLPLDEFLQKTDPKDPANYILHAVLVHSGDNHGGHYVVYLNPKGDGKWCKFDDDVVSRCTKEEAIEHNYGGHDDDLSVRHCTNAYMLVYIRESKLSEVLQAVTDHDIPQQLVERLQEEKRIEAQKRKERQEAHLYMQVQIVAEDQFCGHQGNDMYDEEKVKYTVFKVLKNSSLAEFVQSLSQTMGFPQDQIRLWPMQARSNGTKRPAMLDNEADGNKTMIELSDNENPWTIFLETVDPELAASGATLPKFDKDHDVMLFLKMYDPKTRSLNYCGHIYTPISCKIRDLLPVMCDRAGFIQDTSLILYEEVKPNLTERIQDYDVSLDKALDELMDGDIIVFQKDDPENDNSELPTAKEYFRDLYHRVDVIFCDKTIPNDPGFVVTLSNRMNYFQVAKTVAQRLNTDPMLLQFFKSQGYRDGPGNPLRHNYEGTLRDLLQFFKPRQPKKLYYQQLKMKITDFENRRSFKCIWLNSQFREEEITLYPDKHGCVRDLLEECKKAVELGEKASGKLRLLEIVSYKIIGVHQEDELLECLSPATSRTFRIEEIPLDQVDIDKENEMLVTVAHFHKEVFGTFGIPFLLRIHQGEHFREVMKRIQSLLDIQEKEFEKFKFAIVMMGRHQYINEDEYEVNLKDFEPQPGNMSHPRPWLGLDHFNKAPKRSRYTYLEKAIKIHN
Assay: pull-down; equal amounts (0.42 pmol) of purified His-tagged USP7S and PPM1G incubated at room temperature for 30 min; USP7S pulled down with magnetic Ni-NTA agarose beads (magnetic beads as mock control); western blot with USP7S and PPM1G antibodies
Conditions: both partners purified

- binding result: binds
B1: PPM1G, purified recombinant (enzyme, human, UniProt O15355 1-546, looked up)
chain: MGAYLSQPNTVKCSGDGVGAPRLPLPYGFSAMQGWRVSMEDAHNCIPELDSETAMFSVYDGHGGEEVALYCAKYLPDIIKDQKAYKEGKLQKALEDAFLAIDAKLTTEEVIKELAQIAGRPTEDEDEKEKVADEDDVDNEEAALLHEEATMTIEELLTRYGQNCHKGPPHSKSGGGTGEEPGSQGLNGEAGPEDSTRETPSQENGPTAKAYTGFSSNSERGTEAGQVGEPGIPTGEAGPSCSSASDKLPRVAKSKFFEDSEDESDEAEEEEEDSEECSEEEDGYSSEEAENEEDEDDTEEAEEDDEEEEEEMMVPGMEGKEEPGSDSGTTAVVALIRGKQLIVANAGDSRCVVSEAGKALDMSYDHKPEDEVELARIKNAGGKVTMDGRVNGGLNLSRAIGDHFYKRNKNLPPEEQMISALPDIKVLTLTDDHEFMVIACDGIWNVMSSQEVVDFIQSKISQRDENGELRLLSSIVEELLDQCLAPDTSGDGTGCDNMTCIIICFKPRNTAELQPESGKRKLEEVLSTEGAEENGNSDKKKKAKRD
notes: Serine/threonine protein phosphatase PPM1G (PP2Cγ), human; also called PP2Cγ; PPM1GGST; source: purified recombinant
